This passage reports induction of GTPγS agonist signal over baseline, A2a receptor co-expressed with XLGolf in Sf9 cells, efficacy (Emax) of dopamine-induced [35S]-GTPγS binding, membranes of Sf9 cells co-expressing DRD1 and XLGolf and magnitude of (-)-isoproterenol-induced GTPγS binding above the baseline, membranes of Sf9 cells expressing β2 receptor and XLGolf (% above the baseline) results from patent US20070254313A1, “Gnal Splice Variant and Uses Thereof” (AstraZeneca AB, priority 2003, published 2007).

What all share (assay): cell-based or functional assay
The target of assay [1] is human adenosine A2a receptor (ADORA2A) (human) (UniProt P29274).
Sequence of human adenosine A2a receptor (ADORA2A) (human) (P29274 whole entry): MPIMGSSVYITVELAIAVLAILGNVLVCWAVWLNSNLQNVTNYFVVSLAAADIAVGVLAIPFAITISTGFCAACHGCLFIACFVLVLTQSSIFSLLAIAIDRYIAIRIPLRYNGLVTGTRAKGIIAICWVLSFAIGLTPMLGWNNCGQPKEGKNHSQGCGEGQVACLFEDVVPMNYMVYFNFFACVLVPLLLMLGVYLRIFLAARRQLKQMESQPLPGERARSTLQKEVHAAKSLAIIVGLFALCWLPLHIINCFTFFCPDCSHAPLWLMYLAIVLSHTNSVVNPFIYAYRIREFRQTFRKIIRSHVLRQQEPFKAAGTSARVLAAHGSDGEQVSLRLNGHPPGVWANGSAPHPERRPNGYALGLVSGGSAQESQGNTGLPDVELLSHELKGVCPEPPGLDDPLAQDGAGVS
Assay [2] concerns the target human dopamine D1A receptor (human) (UniProt P21728).
The target of assay [3] is human β2 adrenergic receptor (human) (UniProt P07550).

Sequence of human dopamine D1A receptor (human) (P21728 whole entry): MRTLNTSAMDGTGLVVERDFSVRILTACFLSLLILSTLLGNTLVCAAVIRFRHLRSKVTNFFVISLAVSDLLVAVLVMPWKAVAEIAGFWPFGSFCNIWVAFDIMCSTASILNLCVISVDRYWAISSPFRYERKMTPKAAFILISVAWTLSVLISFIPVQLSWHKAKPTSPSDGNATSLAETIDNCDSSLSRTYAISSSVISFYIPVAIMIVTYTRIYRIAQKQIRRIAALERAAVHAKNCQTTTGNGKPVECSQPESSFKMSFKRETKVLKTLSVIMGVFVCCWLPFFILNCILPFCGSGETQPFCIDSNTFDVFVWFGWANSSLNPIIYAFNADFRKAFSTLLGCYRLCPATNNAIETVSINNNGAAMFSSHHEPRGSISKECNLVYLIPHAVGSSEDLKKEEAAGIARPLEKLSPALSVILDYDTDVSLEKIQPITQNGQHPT

B1: human XLGolf protein (protein)
chain: MGLCYSLRPLLFGGPGDDPCAASEPPVEDAQPAPAPALAPVRAAARDTARTLLPRGGEGSPACARPKADKPKEKRQRTEQLSAEEREAAKEREAVKEARKVSRGIDRMLRDQKRDLQQTHRLLLLGAGESGKSTIVKQMRILHVNGFNPEEKKQKILDIRKNVKDAIVTIVSAMSTIIPPVPLANPENQFRSDYIKSIAPITDFEYSQEFFDHVKKLWDDEGVKACFERSNEYQLIDCAQYFLERIDSVSLVDYTPTDQDLLRCRVLTSGIFETRFQVDKVNFHMFDVGGQRDERRKWIQCFNDVTAIIYVAACSSYNMVIREDNNTNRLRESLDLFESIWNNRWLRTISIILFLNKQDMLAEKVLAGKSKIEDYFPEYANYTVPEDATPDAGEDPKVTRAKFFIRDLFLRISTATGDGKHYCYPHFTCAVDTENIRRVFNDCRDIIQRMHLKQYELL
B1 had an induction of GTPγS agonist signal over baseline, A2a receptor co-expressed with XLGolf in Sf9 cells in assay [1] of 3 fold. In assay [2], the efficacy (Emax) of dopamine-induced [35S]-GTPγS binding, membranes of Sf9 cells co-expressing DRD1 and XLGolf turned out to be 404%. Further, the magnitude of (-)-isoproterenol-induced GTPγS binding above the baseline, membranes of Sf9 cells expressing β2 receptor and XLGolf (% above the baseline) in assay [3] worked out at 700.
